65 molecules from patent US20170298096A1 (CANIMGUIDE THERAPEUTICS, published 2017) can be followed below.

No end group written: not given here.

To fix the notation:
T1: His-tagged P3028 (human, also: His-tag, terminus and sequence not given here)
T1 construct: in solution at 0.5 ug/mL over the peptide cards; found with anti-His-tag antibody and rabbit anti-mouse peroxidase (rampo); also called PGE73; not shown: His-tag
T1 peptide: VFDEFKPLVEEPQNLIK

This experiment concerns the target T1, His-tagged P3028. As to the kind of experiment: PEPSCAN chip ELISA, His-P3028 in solution.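 Further: score is the raw OD at 405 nm from peroxidase colour with ABTS, imaged by CCD camera before and after staining, with wells showing air bubbles set to zero.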
On to RKLDTFFVKLSLFTER [SEQ ID NO 3], for which the “RAMPO Score” value turned out to be 523 rampo score.

For KKLDTFFVKLSLGTER [SEQ ID NO 28], the “RAMPO Score” value came to 531 rampo score.

In the case of KKLDTFFVKLSLMTER [SEQ ID NO 22], the “RAMPO Score” value stood at 1190 rampo score.

For the molecule KKLDGFFVKLSLFTER [SEQ ID NO 95], the “RAMPO Score” value came out at 386 rampo score.

Regarding KKLDTVFVKLSLFTER [SEQ ID NO 8], the “RAMPO Score” value was 547 rampo score.

KKIDTFFVKLSLFTER [SEQ ID NO 289]: the “RAMPO Score” value was 454 rampo score.

Take KKLDTFFVKLSLSTER [SEQ ID NO 27]: the “RAMPO Score” value turned out to be 635 rampo score.

With KKEDTFFVKLSLFTER [SEQ ID NO 5], the “RAMPO Score” value was determined as 528 rampo score.

Take KKLDTFFVKLSLNTER [SEQ ID NO 25]: the “RAMPO Score” value worked out at 862 rampo score.

On to KKDDTFFVKLSLFTER [SEQ ID NO 284], for which the “RAMPO Score” value came to 492 rampo score.

As for KKLDTFTVKLSLFTER [SEQ ID NO 12], the “RAMPO Score” value worked out at 517 rampo score.

For the molecule KKLDTFFVKLSLGTER [SEQ ID NO 100], the “RAMPO Score” value was 531 rampo score.

For the molecule KKLDTFFVKLGLFTER [SEQ ID NO 99], the “RAMPO Score” value was 288 rampo score.

KKNDTFFVKLSLFTER [SEQ ID NO 292]: the “RAMPO Score” value amounted to 374 rampo score.

In the case of KKLDTFFVKLSQFTER [SEQ ID NO 19], the “RAMPO Score” value stood at 651 rampo score.

KKKDTFFVKLSLFTER [SEQ ID NO 290]: the “RAMPO Score” value came out at 386 rampo score.

As to KKGDTFFVKLSLFTER [SEQ ID NO 4], the “RAMPO Score” value amounted to 563 rampo score.

Take HKLDTFFVKLSLFTER [SEQ ID NO 272]: the “RAMPO Score” value is 428 rampo score.

With KKLDTFLVKLSLFTER [SEQ ID NO 13], the “RAMPO Score” value was 517 rampo score.

In the case of KKRDTFFVKLSLFTER [SEQ ID NO 294], the “RAMPO Score” value was 370 rampo score.

As for KKGDTFFVKLSLFTER [SEQ ID NO 287], the “RAMPO Score” value is 563 rampo score.

On to KKLDTFGVKLSLFTER [SEQ ID NO 96], for which the “RAMPO Score” value stood at 347 rampo score.

For the molecule KKLDTFFVKLSLQTER [SEQ ID NO 23], the “RAMPO Score” value was 1140 rampo score.

As for KKLDTFFVKLSLPTER [SEQ ID NO 26], the “RAMPO Score” value stood at 696 rampo score.

As for EKLDTFFVKLSLFTER [SEQ ID NO 270], the “RAMPO Score” value is 396 rampo score.

In the case of RKLDTFFVKLSLFTER [SEQ ID NO 279], the “RAMPO Score” value came to 523 rampo score.

Consider KKGDTFFVKLSLFTER [SEQ ID NO 94], for which the “RAMPO Score” value was 563 rampo score.

Turning to KKLDTFFVKLTLFTER [SEQ ID NO 17], the “RAMPO Score” value came out at 520 rampo score.

Take KKLDTFFVKLSMFTER [SEQ ID NO 21]: the “RAMPO Score” value worked out at 499 rampo score.

Take KKLDTFFVKLSLFPER [SEQ ID NO 32]: the “RAMPO Score” value turned out to be 551 rampo score.

KKHDTFFVKLSLFTER [SEQ ID NO 288]: the “RAMPO Score” value was 477 rampo score.

For the molecule KKLDTFFVKLSVFTER [SEQ ID NO 20], the “RAMPO Score” value was 545 rampo score.

Regarding KKLDTFFVKLSLRTER [SEQ ID NO 30], the “RAMPO Score” value turned out to be 502 rampo score.

In the case of AKLDTFFVKLSLFTER [SEQ ID NO 268], the “RAMPO Score” value was determined as 466 rampo score.

For the molecule KKLDTFFVKLMLFTER [SEQ ID NO 16], the “RAMPO Score” value was determined as 744 rampo score.

As to IKLDTFFVKLSLFTER [SEQ ID NO 273], the “RAMPO Score” value came to 483 rampo score.

As to KKLDTFFVKLSLFNER [SEQ ID NO 31], the “RAMPO Score” value came out at 599 rampo score.

In the case of KKLDTFFVKLSLHTER [SEQ ID NO 24], the “RAMPO Score” value amounted to 1050 rampo score.

Turning to DKLDTFFVKLSLFTER [SEQ ID NO 269], the “RAMPO Score” value was 373 rampo score.

Consider KKLDTFFVKLSLFRER [SEQ ID NO 33], for which the “RAMPO Score” value turned out to be 264 rampo score.

As for KKLDTFSVKLSLFTER [SEQ ID NO 10], the “RAMPO Score” value stood at 700 rampo score.

As for LKLDTFFVKLSLFTER [SEQ ID NO 274], the “RAMPO Score” value amounted to 449 rampo score.

Consider TKLDTFFVKLSLFTER [SEQ ID NO 280], for which the “RAMPO Score” value was 493 rampo score.

Take MKLDTFFVKLSLFTER [SEQ ID NO 275]: the “RAMPO Score” value amounted to 457 rampo score.

For NKLDTFFVKLSLFTER [SEQ ID NO 276], the “RAMPO Score” value amounted to 445 rampo score.

Turning to KKEDTFFVKLSLFTER [SEQ ID NO 285], the “RAMPO Score” value stood at 528 rampo score.

Regarding KKQDTFFVKLSLFTER [SEQ ID NO 293], the “RAMPO Score” value is 473 rampo score.

For the molecule KKLDTFFKKLSLFTER (also called P27; SCF 27) [SEQ ID NO 264], the “RAMPO Score” value is 253 rampo score.

As for KKMDTFFVKLSLFTER [SEQ ID NO 291], the “RAMPO Score” value was 460 rampo score.

KKLDTFMVKLSLFTER [SEQ ID NO 9]: the “RAMPO Score” value was 712 rampo score.

On to VKLDTFFVKLSLFTER [SEQ ID NO 281], for which the “RAMPO Score” value was determined as 442 rampo score.

For the molecule KKCDTFFVKLSLFTER [SEQ ID NO 283], the “RAMPO Score” value stood at 432 rampo score.

Regarding KKLDTFFVKLSLATER [SEQ ID NO 29], the “RAMPO Score” value is 525 rampo score.

On to KKLDTFVVKLSLFTER [SEQ ID NO 11], for which the “RAMPO Score” value came out at 527 rampo score.

Regarding GKLDTFFVKLSLFTER [SEQ ID NO 271], the “RAMPO Score” value turned out to be 367 rampo score.

Take KKLDQFFVKLSLFTER [SEQ ID NO 6]: the “RAMPO Score” value was 535 rampo score.

Turning to KKADTFFVKLSLFTER [SEQ ID NO 282], the “RAMPO Score” value is 427 rampo score.

Turning to KKLDTFFVKVSLFTER [SEQ ID NO 14], the “RAMPO Score” value was 658 rampo score.

As to KKLDTAFVKLSLFTER [SEQ ID NO 7], the “RAMPO Score” value was 575 rampo score.

For KKLDTFFVKLQLFTER [SEQ ID NO 15], the “RAMPO Score” value worked out at 768 rampo score.

In the case of KKLDTFFVKLHLFTER [SEQ ID NO 18], the “RAMPO Score” value amounted to 535 rampo score.

With KKFDTFFVKLSLFTER [SEQ ID NO 286], the “RAMPO Score” value was found to be 393 rampo score.

Regarding GKLDTFFVKLSLFTER [SEQ ID NO 93], the “RAMPO Score” value was determined as 367 rampo score.

As for QKLDTFFVKLSLFTER [SEQ ID NO 278], the “RAMPO Score” value is 455 rampo score.

On to PKLDTFFVKLSLFTER [SEQ ID NO 277], for which the “RAMPO Score” value was 387 rampo score.
